These results are taken from patent publication US20250186597A1, “TARGETED IMMUNE ACTIVATION WITH IL-18 IMMUNOCYTOKINES” (BRIGHT PEAK THERAPEUTICS AG, priority 2023, published 2025).

In one assay the test system is NK92 cells. Description: IFN gamma secretion assay in NK92 cells (Example 10). Type of assay: cell-based, human. To be noted: IFNγ secretion, 1 ng/ml IL-12. The method, then:
The IFNγ-secretion stimulating activity of the unconjugated IL-18 variants and corresponding IL-18 immunocytokines was evaluated on NK92 cell line. The NK cell line NK-92 derived from a patient with lymphoma (ATCC, Cat #CRL-2407) was cultured in aMEM medium supplemented with 12.5% FCS, 12.5% horse serum (HS), 50 uM B-mercaptoEthanol, and 2 ng/ml of recombinant Human Interleukin-2 (IL-2).
On the day of experiment, cells were harvested and washed with aMEM medium without IL-2 and resuspended in medium (w/o IL-2) containing 1 ng/ml of recombinant human Interleukin-12 (SinoBiologicals, Cat #CT011-H08H). After counting, cells were seeded at 100 000 cells/well in a 384 well titer plate and incubated at 37° C./5% CO2. Sixteen 4-fold serial dilutions of IL-18 analytes were prepared in aMEM medium—1 ng/ml IL-12 and were added to the NK-92 cells. […]
After 16-20 h incubation at 37° C./5% CO2, 5 μl of supernatant were carefully transferred to a 384 microwells OPTIPlate (Perkin Elmer; Cat #6007270) and Interferon-gamma (IFNγ) levels measured using the Human IFNγ AlphaLISA Assay Kit (Perkin Elmer, Cat #AL217C). […] AlphaLisa signal was then measured on an Enspire plate reader (Perkin Elmer) using 680 and 615 nm as excitation and emission wavelengths respectively. Half maximal effective concentration (EC50) was calculated based on a variable slope, four parameter analysis using GraphPad PRISM software.

A further assay has as its target T1, human IL-18BP (Homo sapiens, UniProt O95998).
T1 construct: His
T1 sequence (O95998 31-194): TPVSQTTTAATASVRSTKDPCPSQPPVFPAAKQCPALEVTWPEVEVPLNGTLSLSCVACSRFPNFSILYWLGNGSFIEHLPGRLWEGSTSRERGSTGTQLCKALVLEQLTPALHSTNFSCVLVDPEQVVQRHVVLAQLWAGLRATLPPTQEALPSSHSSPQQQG
Description: IL-18BP binding alphaLISA assay (Example 4, used in Example 22B). To be noted: IL-18BP AlphaLISA. For orientation: Bead proximity is the source of the signal in Alpha formats.

In assay [1] the test system is NK-92 cells. Briefly: IL-18 binding protein inhibition cellular assay in NK-92 cells (Example 4, used in Example 22C). To be noted: inhibition by IL-18BP of IFNg stimulation in NK92 cells. Type of assay: cell-based, human. The method, then:
The NK cell line NK-92 derived from a patient with lymphoma (ATCC® CRL-2407™) is cultured in aMEM medium supplemented with 20% FCS-Glutamax, 25 µM B-mercaptoethanol, and 100 IU/mL of recombinant human IL-2.
On the day of experiment, cells are harvested and washed with aMEM medium without IL-2 and containing 1 ng/mL of recombinant human IL-12. After counting, the cells are seeded at 100,000 cells/well in a 384 well titer plate and incubated at 37° C./5% CO2. Sixteen 2-fold serial dilutions of Fc-fused human IL-18 binding protein isoform a (IL-18BPa) are prepared in aMEM medium. 1 ng/mL of IL-12 containing 2 nM of each IL-18 polypeptide variant is added to the NK-92 cells. The final IL-18 analyte concentration is 1 nM, and the final IL-18BPa concentration ranged from 566 nM to […].
After incubating the cells for 16-20 hr at 37° C./5% CO2, 5 μL of the supernatant is carefully transferred to a 384 microwell OptiPlate. IFNγ levels are measured using a human IFNγ AlphaLISA Assay Kit. Briefly, 10 μL of 2.5× AlphaLISA anti-IFNγ acceptor beads and biotinylated antibody anti-IFNγ mix are added to 5 μL of NK-92 supernatants. The mixtures are incubated for 1 hr at room temperature with shaking. Under subdued light, 2.5 μL of 2×SA donor beads are pipetted in each well and incubated for 30 min at room temperature with shaking. AlphaLISA signals are then measured on an EnSpire™ plate reader using 680 nm and 615 nm as excitation and emission wavelengths, respectively. Half maximal inhibitory concentrations (IC50) are calculated based on a variable slope and four parameter analysis using GraphPad PRISM software.
The experiments described in Example 4 for determination of IFNg stimulation in NK92 cells (and inhibition by IL-18 BP) were performed substantially as described on IL-18 polypeptides in order to assess their activities and their suitability for incorporation into immunocytokine compositions. It is expected that the IL-18 polypeptides provided below would behave analagously to C086 (SEQ ID NO: 30) when incorporated into an immunocytokine composition as those otherwise provided herein.

The subject of assay [2] is NK-92 cells. Description: IFNγ induction cellular assay in NK-92 cells (Example 4, used in Example 22C). Type of assay: cell-based, human. The following applies: IFNg stimulation in NK92 cells.

Changes are numbered by the printed parent chain. Numbers in names are those of the source.

B1: SEQ ID NO: 60: IL-18 polypeptide: E6K, C38Q, K53A (protein)
chain: YFGKLKSKLSVIRNLNDQVLFIDQGNRPLFEDMTDSDQRDNAPRTIFIISMYADSQPRGMAVTISVKCEKISTLSCENKIISFKEMNPPDNIKDTKSDIIFFQRSVPGHDNKMQFESSSYEGYFLACEKERDLFKLILKKEDELGDRSIMFTVQNED
Turning to B1, the EC50 (commonly the concentration at which the effect is half-maximal) with NK92 cells turned out to be 8 pM.

B2: C165: IL-18 polypeptide: V11I, C38A, S55R, C76A, C127A (protein)
chain: B1 chain with K6E, V11I, Q38A, A53K, S55R, C76A, C127A
B2: the affinity with human IL-18BP, expressed as Kd, was 0.15 nM. In addition, the IC50 – broadly, the midpoint of a concentration-inhibition curve – with NK-92 cells [1] was determined as 0.885 nM. Moreover, in the assay with NK-92 cells [2], a half-maximal response (EC50) required 0.176 nM.

B3: C159: IL-18 polypeptide: V11I, C38A, K53A, C76A, H109A, C127A (protein)
chain: B1 chain with K6E, V11I, Q38A, C76A, H109A, C127A
As to B3, binding with human IL-18BP was put at a Kd of 0.55 nM. The molecule also had an IC50 in the assay on NK-92 cells [1] of 1.81 nM. Moreover, in the assay with NK-92 cells [2], a half-maximal response (EC50) required 0.123 nM.

B4: 62 (protein)
chain: B1 chain with Q38A, C127A
With B4, in the assay with human IL-18BP, the Kd (usually the concentration at which binding is half-saturated) is 69.6 nM. The same molecule registered an IC50 in the assay with NK-92 cells [1] of 284 nM. Also, the midpoint of the response in the assay on NK-92 cells [2], the EC50, lay at 0.026 nM.

B5: C162: IL-18 polypeptide: K8E, V11I, C38A, C76A, Q103R, C127A (protein)
chain: B1 chain with K6E, K8E, V11I, Q38A, A53K, C76A, Q103R, C127A
B5: binding with human IL-18BP was put at a Kd of 0.85 nM. The same molecule registered an IC50 in the assay with NK-92 cells [1] of 7.29 nM. For the same molecule, a half-maximal response in the assay on NK-92 cells [2] (EC50) required 0.061 nM.

B6: C157: IL-18 polypeptide: V11I, C38A, K53A, C76A, C127A, D132A (protein)
chain: B1 chain with K6E, V11I, Q38A, C76A, C127A, D132A
As for B6, binding in the assay with human IL-18BP was put at a Kd of 13.7 nM. Also, in the assay on NK-92 cells [1], the IC50 is 6.08 nM. In the assay with NK-92 cells [2], the EC50 stood at 0.056 nM.

B7: C167: IL-18 polypeptide: V11I, C38A, C76A, S105I, C127A (protein)
chain: B1 chain with K6E, V11I, Q38A, A53K, C76A, S105I, C127A
B7: in the assay with human IL-18BP, the Kd was 0.04 nM. Further, in the assay on NK-92 cells [1], the IC50 stood at 0.809 nM. The EC50 in the assay on NK-92 cells [2] stood at 0.103 nM.

B8: C164: IL-18 polypeptide: V11I, C38A, S55H, C76A, C127A (protein)
chain: B1 chain with K6E, V11I, Q38A, A53K, S55H, C76A, C127A
In the case of B8, the Kd with human IL-18BP was 0.08 nM. In the assay on NK-92 cells [1], this molecule registered an IC50 of 0.456 nM. In the assay on NK-92 cells [2], this molecule had an EC50 of 0.414 nM.

B9: 35 (protein)
chain: B1 chain with Y1G, F2A, Q38C, M51G, D54A, S55A, T63A
In the assay with human IL-18BP, B9 had a Kd of 969 nM. For the same molecule, in the assay with NK-92 cells [1], the IC50 is greater than 55 nM. In the assay with NK-92 cells [2], the half-maximal effective concentration (EC50) is greater than 55 nM.

B10: C161: IL-18 polypeptide: K8R, V11I, C38A, C76A, Q103E, C127A (protein)
chain: B1 chain with K6E, K8R, V11I, Q38A, A53K, C76A, Q103E, C127A
B10 gave a Kd with human IL-18BP of 0.06 nM. In the assay on NK-92 cells [1], this molecule came in with an IC50 of 1.07 nM. Further, the EC50 with NK-92 cells [2] turned out to be 0.057 nM.

B11: 59 (protein)
chain: B1 chain with Q38A
B11 registered a Kd with human IL-18BP of 36 nM. The same molecule displayed an IC50 in the assay on NK-92 cells [1] of 654 nM. Also, it took 0.015 nM to reach a half-maximal effect with NK-92 cells [2] (EC50).

B12: C166: IL-18 polypeptide: V11I, C38A, S55T, C76A, C127A (protein)
chain: B1 chain with K6E, V11I, Q38A, A53K, S55T, C76A, C127A
The molecule B12 yielded a Kd with human IL-18BP of 0.02 nM. In the assay on NK-92 cells [1], this molecule gave an IC50 of 0.44 nM. For the same molecule, the EC50 in the assay with NK-92 cells [2] amounted to 0.098 nM.

B13: C168: IL-18 polypeptide: V11I, C38A, C76A, S105K, C127A (protein)
chain: B1 chain with K6E, V11I, Q38A, A53K, C76A, S105K, C127A
In the case of B13, in the assay with human IL-18BP, the dissociation constant (Kd) worked out at 0.05 nM. This molecule also showed an IC50 in the assay on NK-92 cells [1] of 0.176 nM. Also, the EC50 in the assay with NK-92 cells [2] came out at 0.098 nM.

B14: C160: IL-18 polypeptide: V11I, C38A, K53A, C76A, D110A, C127A (protein)
chain: B1 chain with K6E, V11I, Q38A, C76A, D110A, C127A
With B14, the Kd with human IL-18BP came out at 0.71 nM. The molecule also registered an IC50 in the assay with NK-92 cells [1] of 3.18 nM. The molecule further registered an EC50 with NK-92 cells [2] of 0.028 nM.

B15: 34 (protein)
chain: B1 chain with Q38C, S55A
On to B15, for which the equilibrium dissociation constant (Kd) with human IL-18BP is greater than 1500 nM. The molecule also registered an IC50 in the assay on NK-92 cells [1] of 229 nM. A half-maximal effect with NK-92 cells [2] (EC50) was put at 0.824 nM.

B16: C158: IL-18 polypeptide: V11I, C38A, K53A, C76A, G108A, C127A (protein)
chain: B1 chain with K6E, V11I, Q38A, C76A, G108A, C127A
Take B16: in the assay with human IL-18BP, binding was characterised by a dissociation constant (Kd) of 1.24 nM. For the same molecule, the IC50 in the assay with NK-92 cells [1] worked out at 3.98 nM. This molecule also returned an EC50 with NK-92 cells [2] of 0.073 nM.

B17: 60 (protein)
chain: B1 chain
In the assay with human IL-18BP, B17 gave a Kd of 24.8 nM. In the assay on NK-92 cells [1], this molecule had an IC50 of 780 nM. Also, the EC50 in the assay on NK-92 cells [2] turned out to be 0.006 nM.

B18: C163: IL-18 polypeptide: V11I, C38A, C76A, Q103K, C127A (protein)
chain: B1 chain with K6E, V11I, Q38A, A53K, C76A, Q103K, C127A
In turn, B18 returned a Kd with human IL-18BP of 0.05 nM. Moreover, the IC50 with NK-92 cells [1] was 0.823 nM. In the assay on NK-92 cells [2], this molecule yielded an EC50 of 0.093 nM.
